Results as given in the supplement of paper PMC10126150.
± gives the standard deviation of the averaged measurements.

System: ATP
Assay: switch fluorescence ratio, 500 uM ATP over buffer (Cy3 cluster intensity, sum of 5 cycles each) (fold (ratio)); higher = stronger signal-on switching upon ATP binding; sequences stand for … in TCGTCGGCAGCGTCAGATGTGTATAAGAGACAGTTTTTTTTTTTTTTTTTTTTTTTTT…TC
Details: aptamer strand: ATP DNA aptamer (quencher-CACCTGGGGGAGTATTGCGGAGGAAGG + anchor), 100 nM annealed; ATP concentration: 500 uM
How it was run: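 Switching-strand clusters labelled with Cy3 on a modified Illumina MiSeq flow-cell were annealed to 100 nM quencher-labelled ATP aptamer, imaged in selection buffer, and re-imaged after 15 min with 500 uM ATP at 22 °C. This was done over five cycles with NaOH stripping and re-annealing in between. The fluorescence ratio is summed target-cycle over summed buffer-cycle Cy3 intensity per cluster, averaged per switch-domain sequence, excluding clusters outside 100-1000 RFU.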
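Also: ATP exposure 15 min at 22 °C before imaging.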

| Sequence | switch fluorescence ratio |
| --- | --- |
| TGATAAGAGT | 1.01 ± 0.011 |
| TGATAAGTG | 0.9877 ± 0.0016 |
| TGATAATGTT | 0.997 ± 0.014 |
| TGATAGAGGA | 0.988 ± 0.059 |
| TGATAGGGTC | 1.06 ± 0.11 |
| TGATAGTGAT | 0.988 ± 0.024 |
| TGATAGTTGA | 1.005 ± 0.0026 |
| TGATATAGCA | 1.03 ± 0.013 |
| TGATATCCGA | 1.04 ± 0.013 |
| TGATATTGG | 0.971 ± 0.045 |
| TGATATTTCT | 1 ± 0.011 |
| TGATCAAATG | 0.989 ± 0.023 |
| TGATCACACG | 1.024 ± 0.01 |
| TGATCAGGGG | 1.03 ± 0.021 |
| TGATCCTTGG | 1.03 ± 0.031 |
| TGATCGTCGG | 1.02 ± 0.013 |
| TGATCTAGGC | 0.98 ± 0.074 |
| TGATCTTTCT | 1.01 ± 0.059 |
| TGATGACCAT | 1.006 ± 0.0079 |
| TGATGATGAC | 1.01 ± 0.0038 |
| TGATGATGAG | 0.996 ± 0.013 |
| TGATGATTTC | 1.009 ± 0.009 |
| TGATGGCATT | 0.9893 ± 0.0071 |
| TGATGGCCCG | 1.03 ± 0.092 |
| TGATGGCGTT | 1 ± 0.031 |
| TGATGGGGCT | 0.975 ± 0.038 |

| Sequence | switch fluorescence ratio |
| --- | --- |
| TGATGGGTAT | 1 ± 0.028 |
| TGATGGGTTG | 1 ± 0.03 |
| TGATGTTAGC | 1.03 ± 0.036 |
| TGATGTTGTC | 0.988 ± 0.033 |
| TGATTAATGT | 0.9996 ± 0.0099 |
| TGATTAGTCG | 1.01 ± 0.023 |
| TGATTATTGG | 1 ± 0.061 |
| TGATTCAGGG | 1.028 ± 0.0081 |
| TGATTCTCGT | 1.02 ± 0.018 |
| TGATTGAAGC | 1.03 ± 0.032 |
| TGATTGAGTT | 1 ± 0.016 |
| TGATTGGCTG | 1.02 ± 0.045 |
| TGATTGGGGG | 0.989 ± 0.031 |
| TGATTGGGTA | 1 ± 0.019 |
| TGATTGGGTG | 1.01 ± 0.054 |
| TGATTGTAAT | 0.9655 ± 0.0069 |
| TGATTGTGCG | 0.957 ± 0.021 |
| TGATTTAGGC | 0.9803 ± 0.009 |
| TGATTTGGCA | 1.02 ± 0.0023 |
| TGATTTGGCT | 1.02 ± 0.031 |
| TGATTTTAAG | 0.999 ± 0.018 |
| TGATTTTAGA | 0.974 ± 0.052 |
| TGATTTTTAT | 1.011 ± 0.0089 |
| TGATTTTTTA | 0.992 ± 0.025 |
| TGCAAAGGGC | 1.01 ± 0.015 |
| TGCAACCTTG | 1.0397 ± 0.0007 |

| Sequence | switch fluorescence ratio |
| --- | --- |
| TGCAACCTTT | 1.02 ± 0.014 |
| TGCAACGGGT | 1.02 ± 0.018 |
| TGCAACTTTT | 1.01 ± 0.019 |
| TGCAAGAAGG | 0.9832 ± 0.0053 |
| TGCAAGCGAC | 2.61 ± 0.18 |
| TGCAAGTGAA | 0.997 ± 0.053 |
| TGCAAGTTTT | 1.24 ± 0.33 |
| TGCAATGTAG | 1.082 ± 0.0029 |
| TGCAATTCAG | 1.14 ± 0.012 |
| TGCAATTTTT | 1.04 ± 0.077 |
| TGCACACGTG | 0.9787 ± 0.0068 |
| TGCACCTTGG | 1.014 ± 0.0099 |
| TGCACTGGGA | 1.04 ± 0.034 |
| TGCAGAAGGT | 0.992 ± 0.03 |
| TGCAGATTTC | 0.9978 ± 0.0088 |
| TGCAGCAGGT | 1.18 ± 0.025 |
| TGCAGCATGA | 1.333 ± 0.008 |
| TGCAGCATTA | 2.31 ± 0.19 |
| TGCAGCTGTA | 1.04 ± 0.014 |
| TGCAGGGACG | 1 ± 0.03 |
| TGCAGGGCAA | 1.02 ± 0.044 |
| TGCAGGGCGT | 1.01 ± 0.031 |
| TGCAGGGGTC | 1.02 ± 0.025 |
| TGCAGTCTAG | 1.07 ± 0.15 |
